Experimental findings from patent US20150260731A1 are described below.

Experiment [1] has as its target Aβ1-20. As to the kind of experiment: solution-based binding assay, free antibody by ELISA, GRAFIT fit.
Experiment [2] concerns the target amyloid β-derived diffusible ligands (ADDLs), oligomers of Aβ1-42. As to the kind of experiment: ELISA, IgG2.
For experiment [3], the target named is Aβ1-40 monomer. The experiment can be described thus: BIACORE (SPR).
The target of experiment [4] is amyloid β-derived diffusible ligands (ADDLs), oligomers of Aβ1-42. The experiment can be described thus: BIACORE (SPR).
Experiment [5] deals with Aβ1-40 monomer. The experiment can be described thus: KINEXA, equilibrium in solution.
The target of experiment [6] is amyloid β-derived diffusible ligands (ADDLs), oligomers of Aβ1-42. As to the kind of experiment: KINEXA, equilibrium in solution.
For experiment [7] the target is unchanged. The experiment can be described thus: competitive ELISA (ratio of the two EC50).
Experiment [8] deals with Aβ1-40 monomer. The experiment can be described thus: ELISA on coated antigen; antibody at 0 timepoint.
Experiment [9] deals with Aβ1-40 monomer. The experiment can be described thus: sandwich ELISA on ERENNA, 19.3 capture, 7305 detection.
The target in experiment [10] is Aβ1-40 monomer. As to the kind of experiment: sandwich ELISA on ERENNA, 19.3 capture, 82E1 detection.
For experiment [11], the target named is Aβ1-40 monomer. The experiment can be described thus: ELISA on coated antigen; antibody kept at 4° for 1 month.
Experiment [12] addresses Aβ1-40 monomer. As to the kind of experiment: ELISA on coated antigen; antibody kept at 25° for 1 month.
In experiment [13] the target is Aβ1-40 monomer. As to the kind of experiment: ELISA on coated antigen; antibody kept at 40° for 1 month.
Experiment [14] addresses Aβ1-40 monomer. The experiment can be described thus: one-sided ELISA, plate coated with Aβ1-40 100 pmol/well (FIG. 5A).
Experiment [15] concerns the target amyloid β-derived diffusible ligands (ADDLs), oligomers of Aβ1-42. The experiment can be described thus: one-sided ELISA, plate coated with Aβ oligomers 50 pmol/well (FIG. 5A).
The target is the same in experiment [16]. As to the kind of experiment: sandwich ELISA on ERENNA, 19.3 on beads as capture, labelled 7305 as detection; ADDLs 0.19 pM in standards diluent.
Experiment [17] has the same target. As to the kind of experiment: sandwich ELISA on ERENNA, 19.3 on beads as capture, labelled 7305 as detection; ADDLs 0.56 pM in standards diluent.
Experiment [18] has the same target. As to the kind of experiment: sandwich ELISA on ERENNA, 19.3 on beads as capture, labelled 7305 as detection; ADDLs 1.67 pM in standards diluent.
Experiment [19] shares this target. As to the kind of experiment: sandwich ELISA on ERENNA, 19.3 on beads as capture, labelled 7305 as detection; ADDLs 5.00 pM in standards diluent.

Sequence of Aβ1-20 (peptide, as listed by the source): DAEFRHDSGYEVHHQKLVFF

For the substance WO-2 (antibody), in experiment [1], the Kd was determined as 19.3 nM.
As to anti-ADDL antibody 19.3, the 50% effective concentration (EC50) in experiment [2] amounted to 0.8 nM; in experiment [8], 10.1 nM; in experiment [11], 16.3 nM; in experiment [12], 22.1 nM; in experiment [13], 88.8 nM; in [14] it was 4.3 nM. In [15], this substance displayed an EC50 of 1.6 nM. Besides, the Kd in experiment [3] came out at 150 nM; in experiment [4], 4.8 nM; in experiment [5], 16.7 nM; in experiment [6] it was 2.7 nM. For the same substance, in experiment [7], the affinity for Aβ1-42 oligomers compared to Aβ1-40 monomers is 630. The Aβ40 monomer Cross Reactivity turned out to be 0.02% in experiment [9] and 0.04% in experiment [10]. The DE Mean (detected events mean) (detected events) was determined as 324 in [16], 691 in [17], 1940 in [18] and 5580 in [19].
